Source: patent US20170082633A1 (WHITEHEAD INSTITUTE FOR BIOMEDICAL RESEARCH, published 2017)

How the values were obtained:
endogenous RagC = biological target: T1, endogenous RagC (UniProt Q9HB90 2-399); test: FLAG IP from transfected HEK-293T cells, immunoblot
T1 construct: Detected by immunoblot in anti-FLAG immunoprecipitates; also called RagC GTPase
Description: (§1) HEK-293T cells were cultured in DMEM supplemented with 10% inactivated fetal bovine serum, penicillin (100 IU/mL), and streptomycin (100 μg/mL) and maintained at 37° C. and 5% CO₂. Two million HEK-293T cells were plated in 10 cm culture dishes.
(§2) Transfection mixes were taken up to a total of 5 μg of DNA using empty pRK5. HEK-293T cells stably expressing FLAG-tagged proteins were rinsed once with ice-cold PBS and lysed in ice-cold lysis buffer (40 mM HEPES pH 7.4, 1% Triton X-100, 10 mM β-glycerol phosphate, 10 mM pyrophosphate, 2.5 mM MgC12 and 1 tablet of EDTA-free protease inhibitor (Roche) per 25 ml buffer). The soluble fractions from cell lysates were isolated by centrifugation at 13,000 rpm for 10 min in a microcentrifuge. […] Immunoprecipitates were washed three times with lysis buffer containing 500 mM NaCl. Immunoprecipitated proteins were denatured by the addition of 50 μL of sample buffer and incubation at RT for 30 min. It is critical that the samples containing SLC38A9 are neither boiled nor frozen prior to resolution by SDS-PAGE and analysis by immunoblotting. A similar protocol was employed when preparing samples for mass spectrometry.

endogenous Ragulator = endogenous Ragulator (UniProt Q6IAA8 2-161; Q9Y2Q5 1-125; Q9UHA4 1-124; Q0VGL1 1-99; O43504 1-91); test: co-immunoprecipitation from HEK-293T cells, immunoblot
Description: as §2

[1] = biological target: co-expressed epitope tagged Ragulator proteins (UniProt Q6IAA8 2-161; Q9Y2Q5 1-125; Q9UHA4 1-124; Q0VGL1 1-99; O43504 1-91); test: as above
Description: as §2

endogenous p14 = biological target: T2, endogenous p14 (UniProt Q9Y2Q5 1-125); test: FLAG IP from transfected HEK-293T cells, immunoblot
T2 construct: Detected by immunoblot in anti-FLAG immunoprecipitates; also called LAMTOR2
Description: as §1, §2

endogenous p18 = biological target: T3, endogenous p18 (UniProt Q6IAA8 2-161); test: as above
T3 construct: Detected by immunoblot in anti-FLAG immunoprecipitates; also called LAMTOR1
Description: as §1, §2

endogenous RagA = biological target: T4, endogenous RagA (UniProt Q7L523 1-313); test: as above
T4 construct: Detected by immunoblot in anti-FLAG immunoprecipitates; also called RagA GTPase
T4 sequence (Q7L523 whole entry): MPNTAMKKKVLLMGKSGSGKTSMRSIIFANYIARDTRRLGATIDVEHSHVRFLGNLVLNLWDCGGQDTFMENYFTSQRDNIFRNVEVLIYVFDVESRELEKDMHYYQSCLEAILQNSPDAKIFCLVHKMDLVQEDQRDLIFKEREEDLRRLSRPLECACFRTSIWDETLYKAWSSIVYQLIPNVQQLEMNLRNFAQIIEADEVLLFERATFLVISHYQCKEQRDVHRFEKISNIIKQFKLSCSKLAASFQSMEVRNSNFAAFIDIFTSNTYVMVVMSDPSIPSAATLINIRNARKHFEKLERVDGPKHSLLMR
Description: as §1, §2

T1 sequence (Q9HB90 2-399 limits assumed): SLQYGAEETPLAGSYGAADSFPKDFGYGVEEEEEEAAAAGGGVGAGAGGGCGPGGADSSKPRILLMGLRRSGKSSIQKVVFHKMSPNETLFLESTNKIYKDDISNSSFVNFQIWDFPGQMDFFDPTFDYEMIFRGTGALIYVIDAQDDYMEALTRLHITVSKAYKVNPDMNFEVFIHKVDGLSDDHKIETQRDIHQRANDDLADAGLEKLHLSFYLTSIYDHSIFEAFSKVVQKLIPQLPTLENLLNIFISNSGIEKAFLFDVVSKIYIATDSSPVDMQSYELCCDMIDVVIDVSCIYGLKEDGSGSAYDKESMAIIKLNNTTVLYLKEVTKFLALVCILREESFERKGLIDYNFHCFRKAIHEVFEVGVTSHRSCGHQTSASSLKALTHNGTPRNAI

binding result (endogenous RagC)	binding result (endogenous Ragulator)	binding result [1]	binding result (endogenous p14)	binding result (endogenous p18)	binding result (endogenous RagA)	Binder
no binding						FLAG-LAMP1 (other, Control lysosomal membrane protein) DYKDDDDKAMFMVKNGNGTACIMANFSAAFSVNYDTKSGPKNMTFDLPSDATVVLNRSSCGKENTSDPSLVIAFGRGHTLTLNFTRNATRYSVQLMSFVYNLSDTHLFPNASSKEIKTVESITDIRADIDKKYRCVSGTQVHMNNVTVTLHDATIQAYLSNSSFSRGETRCEQDRPSPTTAPPAPPSPSPSPVPKSPSVDKYNVSGTNGTCLLASMGLQLNLTYERKDNTTVTRLLNINPNKTSASGSCGAHLVTLELHSEGTTVLLFQFGMNASSSRFFLQGIQLNTILPDARDPAFKAANGSLRALQATVGNSYKCNAEEHVRVTKAFSVNIFKVWVQAFKVEGGQFGSVEECLLDENSMLIPIAVGGALAGLVLIVLIAYLVGRKRSHAGYQTI
	no binding	no binding				FLAG-SLC38A9.1 Δ110 (other, also called SLC38A9 Δ110) DYKDDDDKTEGYGKNTSLVTIFMIWNTMMGTSILSIPWGIKQAGFTTGMCVIILMGLLTLYCCYRVVKSRTMMFSLDTTSWEYPDVCRHYFGSFGQWSSLLFSLVSLIGAMIVYWVLMSNFLFNTGKFIFNFIHHINDTDTILSTNNSNPVICPSAGSGGHPDNSSMIFYANDTGAQQFEKWWDKSRTVPFYLVGLLLPLLNFKSPSFFSKFNILGTVSVLYLIFLVTFKAVRLGFHLEFHWFIPTEFFVPEIRFQFPQLTGVLTLAFFIHNCIITLLKNNKKQENNVRDLCIAYMLVTLTYLYIGVLVFASFPSPPLSKDCIEQNFLDNFPSSDTLSFIARIFLLFQMMTVYPLLGYLARVQLLGHIFGDIYPSIFHVLILNLIIVGAGVIMACFYPNIGGIIRYSGAACGLAFVFIYPSLIYIISLHQEERLTWPKLIFHVFIIILGVANLIVQFFM
	no binding	no binding				FLAG-SLC38A9.4 (other, also called SLC38A9 isoform 4; isoform 4) DYKDDDDKLVTIFMIWNTMMGTSILSIPWGIKQAGFTTGMCVIILMGLLTLYCCYRVVKSRTMMFSLDTTSWEYPDVCRHYFGSFGQWSSLLFSLVSLIGAMIVYWVLMSNFLFNTGKFIFNFIHHINDTDTILSTNNSNPVICPSAGSGGHPDNSSMIFYANDTGAQQFEKWWDKSRTVPFYLVGLLLPLLNFKSPSFFSKFNILGTVSVLYLIFLVTFKAVRLGFHLEFHWFIPTEFFVPEIRFQFPQLTGVLTLAFFIHNCIITLLKNNKKQENNVRDLCIAYMLVTLTYLYIGVLVFASFPSPPLSKDCIEQNFLDNFPSSDTLSFIARIFLLFQMMTVYPLLGYLARVQLLGHIFGDIYPSIFHVLILNLIIVGAGVIMACFYPNIGGIIRYSGAACGLAFVFIYPSLIYIISLHQEERLTWPKLIFHVFIIILGVANLIVQFFM
no binding			no binding	no binding	no binding	FLAG-SLC38A9.1 L74A (other) single chain: MANMNSDSRHLGTSEVDHERDPGPMNIQFEPSDLRSKRPFCIEPTNIVNVNHVIQRVSDHASAMNKRIHYYSRATTPADKALIAPDHVVPAPEECYVYSPLGSAYKLQSYTEGYGKNTSLVTIFMIWNTMMGTSILSIPWGIKQAGFTTGMCVIILMGLLTLYCCYRVVKSRTMMFSLDTTSWEYPDVCRHYFGSFGQWSSLLFSLVSLIGAMIVYWVLMSNFLFNTGKFIFNFIHHINDTDTILSTNNSNPVICPSAGSGGHPDNSSMIFYANDTGAQQFEKWWDKSRTVPFYLVGLLLPLLNFKSPSFFSKFNILGTVSVLYLIFLVTFKAVRLGFHLEFHWFIPTEFFVPEIRFQFPQLTGVLTLAFFIHNCIITLLKNNKKQENNVRDLCIAYMLVTLTYLYIGVLVFASFPSPPLSKDCIEQNFLDNFPSSDTLSFIARIFLLFQMMTVYPLLGYLARVQLLGHIFGDIYPSIFHVLILNLIIVGAGVIMACFYPNIGGIIRYSGAACGLAFVFIYPSLIYIISLHQEERLTWPKLIFHVFIIILGVANLIVQFFM
no binding			no binding	no binding	no binding	FLAG-SLC38A9.1 P90A (other, Full-length mutant) single chain: MANMNSDSRHLGTSEVDHERDPGPMNIQFEPSDLRSKRPFCIEPTNIVNVNHVIQRVSDHASAMNKRIHYYSRLTTPADKALIAPDHVVAAPEECYVYSPLGSAYKLQSYTEGYGKNTSLVTIFMIWNTMMGTSILSIPWGIKQAGFTTGMCVIILMGLLTLYCCYRVVKSRTMMFSLDTTSWEYPDVCRHYFGSFGQWSSLLFSLVSLIGAMIVYWVLMSNFLFNTGKFIFNFIHHINDTDTILSTNNSNPVICPSAGSGGHPDNSSMIFYANDTGAQQFEKWWDKSRTVPFYLVGLLLPLLNFKSPSFFSKFNILGTVSVLYLIFLVTFKAVRLGFHLEFHWFIPTEFFVPEIRFQFPQLTGVLTLAFFIHNCIITLLKNNKKQENNVRDLCIAYMLVTLTYLYIGVLVFASFPSPPLSKDCIEQNFLDNFPSSDTLSFIARIFLLFQMMTVYPLLGYLARVQLLGHIFGDIYPSIFHVLILNLIIVGAGVIMACFYPNIGGIIRYSGAACGLAFVFIYPSLIYIISLHQEERLTWPKLIFHVFIIILGVANLIVQFFM
no binding			no binding	no binding	no binding	FLAG-SLC38A9.1 Y71A (other, Full-length mutant) single chain: MANMNSDSRHLGTSEVDHERDPGPMNIQFEPSDLRSKRPFCIEPTNIVNVNHVIQRVSDHASAMNKRIHYASRLTTPADKALIAPDHVVPAPEECYVYSPLGSAYKLQSYTEGYGKNTSLVTIFMIWNTMMGTSILSIPWGIKQAGFTTGMCVIILMGLLTLYCCYRVVKSRTMMFSLDTTSWEYPDVCRHYFGSFGQWSSLLFSLVSLIGAMIVYWVLMSNFLFNTGKFIFNFIHHINDTDTILSTNNSNPVICPSAGSGGHPDNSSMIFYANDTGAQQFEKWWDKSRTVPFYLVGLLLPLLNFKSPSFFSKFNILGTVSVLYLIFLVTFKAVRLGFHLEFHWFIPTEFFVPEIRFQFPQLTGVLTLAFFIHNCIITLLKNNKKQENNVRDLCIAYMLVTLTYLYIGVLVFASFPSPPLSKDCIEQNFLDNFPSSDTLSFIARIFLLFQMMTVYPLLGYLARVQLLGHIFGDIYPSIFHVLILNLIIVGAGVIMACFYPNIGGIIRYSGAACGLAFVFIYPSLIYIISLHQEERLTWPKLIFHVFIIILGVANLIVQFFM
no binding			no binding	no binding	no binding	FLAG-SLC38A9.1 P85A (other, Full-length mutant) single chain: MANMNSDSRHLGTSEVDHERDPGPMNIQFEPSDLRSKRPFCIEPTNIVNVNHVIQRVSDHASAMNKRIHYYSRLTTPADKALIAADHVVPAPEECYVYSPLGSAYKLQSYTEGYGKNTSLVTIFMIWNTMMGTSILSIPWGIKQAGFTTGMCVIILMGLLTLYCCYRVVKSRTMMFSLDTTSWEYPDVCRHYFGSFGQWSSLLFSLVSLIGAMIVYWVLMSNFLFNTGKFIFNFIHHINDTDTILSTNNSNPVICPSAGSGGHPDNSSMIFYANDTGAQQFEKWWDKSRTVPFYLVGLLLPLLNFKSPSFFSKFNILGTVSVLYLIFLVTFKAVRLGFHLEFHWFIPTEFFVPEIRFQFPQLTGVLTLAFFIHNCIITLLKNNKKQENNVRDLCIAYMLVTLTYLYIGVLVFASFPSPPLSKDCIEQNFLDNFPSSDTLSFIARIFLLFQMMTVYPLLGYLARVQLLGHIFGDIYPSIFHVLILNLIIVGAGVIMACFYPNIGGIIRYSGAACGLAFVFIYPSLIYIISLHQEERLTWPKLIFHVFIIILGVANLIVQFFM
	no binding	no binding				FLAG-SLC38A9.2 (other, also called SLC38A9 isoform 2; isoform 2) DYKDDDDKMNKRIHYYSRLTTPADKALIAPDHVVPAPEECYVYSPLGSAYKLQSYTEGYGKNTSLVTIFMIWNTMMGTSILSIPWGIKQAGFTTGMCVIILMGLLTLYCCYRVVKSRTMMFSLDTTSWEYPDVCRHYFGSFGQWSSLLFSLVSLIGAMIVYWVLMSNFLFNTGKFIFNFIHHINDTDTILSTNNSNPVICPSAGSGGHPDNSSMIFYANDTGAQQFEKWWDKSRTVPFYLVGLLLPLLNFKSPSFFSKFNILGTVSVLYLIFLVTFKAVRLGFHLEFHWFIPTEFFVPEIRFQFPQLTGVLTLAFFIHNCIITLLKNNKKQENNVRDLCIAYMLVTLTYLYIGVLVFASFPSPPLSKDCIEQNFLDNFPSSDTLSFIARIFLLFQMMTVYPLLGYLARVQLLGHIFGDIYPSIFHVLILNLIIVGAGVIMACFYPNIGGIIRYSGAACGLAFVFIYPSLIYIISLHQEERLTWPKLIFHVFIIILGVANLIVQFFM
